Results taken from US20250196025A1.

How the values were obtained:
IgG (Gammanorm) [1] = assay: SPR (Biacore), variant amine-coupled to CM5 chip, Gammanorm as analyte, steady state affinity fit
IgG (Gammanorm) [2] = assay: SPR (Biacore), variant amine-coupled to CM5 chip, Gammanorm as analyte, 1:1 kinetic fit

| Binder | Kd (IgG (Gammanorm) [1]) [nM] | Kd (IgG (Gammanorm) [2]) [nM] |
| --- | --- | --- |
| Protein L variant pAM247 (domain C4-1; H10, H45, Q60) (protein) PKEEVTIKVHLIFADGKTQTAEFKGTFEEATAEAYRYADLLAKVHGEYTADLEDGGYTIQIKFAGKEQPGENPG | 38 | 9 |
| Protein L variant pAM262 (domain D1-2; H10, H45, Y60) (protein) PKEEVTIKAHLIFADGKTQTAEFKGTFEEATAEAYRYADLLAKVHGEYTADLEDGGYTIYIKFAGKEQPGEN | 48 | 11 |
| Protein L variant pAM246 (domain C3b-1; H10, H45, Q60) (protein) PKEEVTIKVHLIFADGKIQTAEFKGTFEEATAKAYAYADLLAKEHGEYTADLEDGGYTIQIKFAGKETPETPEE | 49 | 17 |
| Protein L variant pAM244 (domain C2b-1; H10, H45, Q60) (protein) PKEEVTIKVHLIFADGKTQTAEFKGTFEEATAKAYAYADLLAKEHGEYTADLEDGGYTIQIKFAGKETPETPEE | 50 | 18 |
| Protein L variant pAM260 (domain C3b-2; H10, H45, Y60) (protein) PKEEVTIKVHLIFADGKIQTAEFKGTFEEATAKAYAYADLLAKEHGEYTADLEDGGYTIYIKFAGKETPETPEE | 51 | 18 |
| Protein L variant pAM253 (domain B4-2; H10, H45, Y60) (protein) PKEEVTIKAHLIYADGKTQTAEFKGTFAEATAEAYRYADLLAKEHGKYTADLEDGGYTIYIRFAGKKVDEKPEE | 54 | 14 |
| Protein L variant pAM251 (domain B2-2; H10, H45, Y60) (protein) PKEEVTIKAHLIYADGKTQTAEFKGTFEEAAAEAYRYADALKKDHGEYTVDVADKGYTLYIKFAGKEKTPEE | 55 | 20 |
| Protein L variant pAM248 (domain D1-1; H10, H45, Q60) (protein) PKEEVTIKAHLIFADGKTQTAEFKGTFEEATAEAYRYADLLAKVHGEYTADLEDGGYTIQIKFAGKEQPGEN | 56 | 16 |
| Protein L variant pAM239 (domain B4-1; H10, H45, Q60) (protein) PKEEVTIKAHLIYADGKTQTAEFKGTFAEATAEAYRYADLLAKEHGKYTADLEDGGYTIQIRFAGKKVDEKPEE | 60 | 17 |
| Protein L variant pAM252 (domain B3-2; H10, H45, Y60) (protein) PKEEVTIKAHLIYADGKTQTAEFKGTFEEATAEAYRYADLLAKEHGKYTVDVADKGYTLYIKFAGKEKTPEE | 69 | 16 |
| Protein L variant pAM237 (domain B2-1; H10, H45, Q60) (protein) PKEEVTIKAHLIYADGKTQTAEFKGTFEEAAAEAYRYADALKKDHGEYTVDVADKGYTLQIKFAGKEKTPEE | 72 | 27 |
| Protein L variant pAM249 (domain B1-2; H10, H45, Y60) (protein) SEEEVTIKAHLIFANGSTQTAEFKGTFEKATSEAYAYADTLKKDHGEYTVDVADKGYTLYIKFAGKEKTPEE | 79 | 29 |
| Protein L variant pAM238 (domain B3-1; H10, H45, Q60) (protein) PKEEVTIKAHLIYADGKTQTAEFKGTFEEATAEAYRYADLLAKEHGKYTVDVADKGYTLQIKFAGKEKTPEE | 82 | 25 |
| Protein L variant pAM243 (domain C2-1; H10, H45, Q60) (protein) PKEEVTIKVHLIFADGKTQTAEFKGTFEEATAKAYAYADLLAKEHGEYTADLEDGGNTIQIKFAGKETPETPEE | 83 | 39 |
| Protein L variant pAM257 (domain C2-2; H10, H45, Y60) (protein) PKEEVTIKVHLIFADGKTQTAEFKGTFEEATAKAYAYADLLAKEHGEYTADLEDGGNTIYIKFAGKETPETPEE | 98 | 47 |
| Protein L variant pAM235 (domain B1-1; H10, H45, Q60) (protein) SEEEVTIKAHLIFANGSTQTAEFKGTFEKATSEAYAYADTLKKDHGEYTVDVADKGYTLQIKFAGKEKTPEE | 101 | 42 |
| Protein L variant pAM259 (domain C3-2; H10, H45, Y60) (protein) PKEEVTIKVHLIFADGKIQTAEFKGTFEEATAKAYAYANLLAKEHGEYTADLEDGGNTIYIKFAGKETPETPEE | 120 | 55 |
| Protein L variant pAM261 (domain C4-2; H10, H45, Y60) (protein) PKEEVTIKVHLIFADGKTQTAEFKGTFEEATAEAYRYADLLAKVHGEYTADLEDGGYTIYIKFAGKEQPGENPG | 43 | 12 |
| Protein L variant pAM245 (domain C3-1; H10, H45, Q60) (protein) PKEEVTIKVHLIFADGKIQTAEFKGTFEEATAKAYAYANLLAKEHGEYTADLEDGGNTIQIKFAGKETPETPEE | 134 | 65 |
| Protein L variant pAM258 (domain C2b-2; H10, H45, Y60) (protein) PKEEVTIKVHLIFADGKTQTAEFKGTFEEATAKAYAYADLLAKEHGEYTADLEDGGYTIYIKFAGKETPETPEE | 45 | 17 |
